Assay [1] addresses T1, Core RAG1 (384–1008) fused to MBP (MR1) (mouse, UniProt P15919 384-1008).
T1 sequence (looked up): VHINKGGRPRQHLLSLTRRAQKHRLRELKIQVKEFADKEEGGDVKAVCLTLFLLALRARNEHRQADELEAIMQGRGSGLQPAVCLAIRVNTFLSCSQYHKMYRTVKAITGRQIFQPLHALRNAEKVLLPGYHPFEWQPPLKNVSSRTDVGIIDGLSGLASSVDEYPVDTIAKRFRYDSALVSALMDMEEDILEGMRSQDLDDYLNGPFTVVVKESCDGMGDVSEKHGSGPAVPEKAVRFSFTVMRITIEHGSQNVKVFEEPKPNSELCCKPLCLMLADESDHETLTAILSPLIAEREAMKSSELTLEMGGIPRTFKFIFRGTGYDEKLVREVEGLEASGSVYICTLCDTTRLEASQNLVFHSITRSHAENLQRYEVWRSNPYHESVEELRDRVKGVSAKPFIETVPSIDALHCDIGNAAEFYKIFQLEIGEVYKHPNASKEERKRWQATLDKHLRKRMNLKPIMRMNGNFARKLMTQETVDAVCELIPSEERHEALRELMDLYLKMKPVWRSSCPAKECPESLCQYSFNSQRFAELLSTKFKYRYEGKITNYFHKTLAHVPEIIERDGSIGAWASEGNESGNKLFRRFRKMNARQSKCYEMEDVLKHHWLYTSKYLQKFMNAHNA
Kind of assay: SEC. (In general: SEC sorts molecules by how far they enter the pores of the column.)

Assay [2] concerns the target T2, Core RAG1 (384–1008) fused to MBP (MR1) (mouse), P15919.
T2 chain: T1 sequence (looked up)
Briefly: SEC-MALS. Conditions: remark: other sources report otherwise.

B1: Core RAG2 fused to MBP with a PreScission protease site (LR2) (domain or fragment, mouse, UniProt P21784 1-387, looked up)
chain: MSLQMVTVGHNIALIQPGFSLMNFDGQVFFFGQKGWPKRSCPTGVFHFDIKQNHLKLKPAIFSKDSCYLPPLRYPATCSYKGSIDSDKHQYIIHGGKTPNNELSDKIYIMSVACKNNKKVTFRCTEKDLVGDVPEPRYGHSIDVVYSRGKSMGVLFGGRSYMPSTQRTTEKWNSVADCLPHVFLIDFEFGCATSYILPELQDGLSFHVSIARNDTVYILGGHSLASNIRPANLYRIRVDLPLGTPAVNCTVLPGGISVSSAILTQTNNDEFVIVGGYQLENQKRMVCSLVSLGDNTIEISEMETPDWTSDIKHSKIWFGSNMGNGTIFLGIPGDNKQAMSEAFYFYTLRCSEEDLSEDQKIVSNSQTSTEDPGDSTPFEDSEEFCFS
B1: the “stoichiometry N” value in assay [1] was 1 RAG1:RAG2.

B2: Core RAG1 (384–1008) fused to MBP (MR1), P15919 384-1008 (domain or fragment)
chain: T1 sequence (looked up)
For B2, in assay [2], the stoichiometry N stood at 2.

B3: HMGB1 (1–163) (domain or fragment, UniProt P09429 1-163, looked up)
chain: MGKGDPKKPRGKMSSYAFFVQTCREEHKKKHPDASVNFSEFSKKCSERWKTMSAKEKGKFEDMAKADKARYEREMKTYIPPKGETKKKFKDPNAPKRPPSAFFLFCSEYRPKIKGEHPGLSIGDVAKKLGEMWNNTAADDKQPYEKKAAKLKEKYEKDIAAYR
Consider B3, for which the “stoichiometry N” value in assay [1] is approximately 0.5 per RAG1.

In general, stoichiometry N refers to the number of molecules, sites or subunits per partner or assembly.

(Values after paper PMC2730168 (Molecular cell, 2009).)
